Test [1] addresses EphA3-Fc (Mus musculus) (UniProt P29319). Conditions: cited from earlier work.
The target of test [2] is EphA4 LBD (Homo sapiens) (UniProt P54764). In words: SPR. Conditions: cited from earlier work.
The target of test [3] is T1, zebrafish GDNF family receptor alpha 1 extracellular domain (zGFRα1^ECD), Flag-His8-tagged (zebrafish (Danio rerio), UniProt Q98TT9 31-351).
T1 construct: GDNF family receptor alpha 1, zebrafish, extracellular domain, residues 31-351 of NCBI NP_571805.1; not shown: Flag, N-terminal, kept; His8, N-terminal, kept
T1 sequence (looked up): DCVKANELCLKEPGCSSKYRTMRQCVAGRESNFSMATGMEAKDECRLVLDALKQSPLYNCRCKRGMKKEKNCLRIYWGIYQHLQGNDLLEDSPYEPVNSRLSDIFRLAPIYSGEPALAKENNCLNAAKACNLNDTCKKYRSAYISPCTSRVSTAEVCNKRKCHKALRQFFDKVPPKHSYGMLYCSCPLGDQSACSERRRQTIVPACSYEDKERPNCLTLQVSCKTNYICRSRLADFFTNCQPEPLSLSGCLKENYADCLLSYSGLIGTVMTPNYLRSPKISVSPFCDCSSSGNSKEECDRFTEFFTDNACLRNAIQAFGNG
In words: native gel or EMSA; Blue Native PAGE, 4-20% gradient gel, Coomassie-stained; purified proteins mixed and incubated 30 min at room temperature, run at 4 °C; zefn-A5^ECD 8 μM, molar ratio 2:1:1:1:1 (zefn-A5^ECD:zRET^ECD:zGDNF:zGFRα1^ECD:mEphA4^LBD); band of the ternary complex checked by LC-MS/MS. Particulars: both partners purified. For orientation: Mobility shift assays separate free from complexed probe on a gel.

Test [4] deals with T2, zebrafish ephrinA5b extracellular domain (zefn-A5^ECD), Flag-His8-tagged (zebrafish (Danio rerio), UniProt P79728 21-204).
T2 construct: ephrin-A5b, zebrafish, extracellular domain, residues 21-204 of NCBI NP_571101.1; thrombin cleavage site between the tags and the protein (pK503.9 vector); also called Danio rerio efn-A5b; efn-A5b; not shown: Flag, N-terminal, kept; His8, N-terminal, kept
T2 sequence (looked up): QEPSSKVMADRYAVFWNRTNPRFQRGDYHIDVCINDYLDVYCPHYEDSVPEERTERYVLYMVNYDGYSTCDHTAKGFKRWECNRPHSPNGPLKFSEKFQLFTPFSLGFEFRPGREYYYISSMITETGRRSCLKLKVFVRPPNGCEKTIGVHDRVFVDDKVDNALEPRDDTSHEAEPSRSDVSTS
In words: BLI; BLItz, zefn-A5^ECD (140 μM) immobilised on Ni-NTA biosensor; SEC buffer with 0.5% Tween-20; 2 min association, 3 min dissociation; Kd from plateau values, one-site total binding model. Conditions: both partners purified. Background: In BLI a coated tip is dipped into the sample, and binding shifts an interference pattern.

Values joined by “and” are separate entries in the source; they are usually repeats but may differ in a detail not shown here. Equal values may be shown once.

Data on five molecules can be found in publication PMC5995387, “Binding of EphrinA5 to RET receptor tyrosine kinase: An in vitro study” (PLoS ONE, 2018).

Chain of EphA4 LBD (Homo sapiens) (P54764 30-209): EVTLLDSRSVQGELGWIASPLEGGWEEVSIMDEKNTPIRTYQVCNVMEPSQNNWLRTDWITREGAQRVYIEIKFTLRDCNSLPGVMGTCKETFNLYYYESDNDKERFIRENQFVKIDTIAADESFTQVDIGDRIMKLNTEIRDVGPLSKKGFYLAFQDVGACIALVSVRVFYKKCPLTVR
Chain of EphA3-Fc (Mus musculus) (P29319 21-540): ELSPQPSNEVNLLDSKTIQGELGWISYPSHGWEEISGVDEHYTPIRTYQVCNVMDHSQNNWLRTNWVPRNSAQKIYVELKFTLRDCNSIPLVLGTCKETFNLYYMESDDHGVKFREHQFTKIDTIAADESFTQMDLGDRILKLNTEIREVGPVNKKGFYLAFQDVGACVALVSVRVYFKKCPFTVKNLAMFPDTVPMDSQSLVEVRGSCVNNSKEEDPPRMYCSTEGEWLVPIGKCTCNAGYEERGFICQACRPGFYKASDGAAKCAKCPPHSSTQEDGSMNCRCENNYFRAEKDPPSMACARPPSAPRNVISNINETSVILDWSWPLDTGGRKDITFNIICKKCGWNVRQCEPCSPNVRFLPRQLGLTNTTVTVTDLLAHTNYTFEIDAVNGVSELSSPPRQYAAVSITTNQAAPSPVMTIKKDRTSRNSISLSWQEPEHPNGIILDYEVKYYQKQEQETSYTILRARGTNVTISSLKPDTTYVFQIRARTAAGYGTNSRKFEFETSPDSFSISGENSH

As to ephrinA5 ECD (from UniProt O08543), in test [1], the Kd was 8 nM.

For ephrinA5 ECD (from UniProt P52803), the Kd in test [2] is 360 nM.

B1: mature zebrafish glial cell-derived neurotrophic factor (zGDNF), N-terminal Flag tag (ligand, zebrafish (Danio rerio), UniProt Q98TU0 90-235, looked up)
chain: SSDVEPQMKRDRVRQKAAANTEKSGGRGRGERKRSRGRARSRDDRVKGQGRGCLLKEIHLNVTDLDLGYRTKEELIFRYCSGPCHDAETNYDKILNNLTHNKKLDKDTPSRTCCRPIAFDDDISFLDDSLEYHTLKKHSAKKCACV
notes: GDNF, zebrafish, mature zGDNF, residues 90-236 of NCBI NP_571807.1; Written as zGDNF2 (dimer) in the complexes; concentrations were calculated for the monomeric form; also called zGDNF2; source: Hi5 insect cells (baculovirus), secreted, purified as previously described [24]; not shown: Flag, N-terminal, kept
Consider B1, for which, in test [3], the “stoichiometry N” value is 1 zGDNF per zGFRα1^ECD (2:2, binary complex) and ~2 zGDNF per zGFRα1^ECD (ternary complex with zRET^ECD).

B2: zebrafish RET extracellular domain (zRET^ECD), Flag-His8-tagged (domain or fragment, zebrafish (Danio rerio), UniProt A8E7C6 22-626, looked up)
chain: GLYFPQRLYTENIYVGQQQGSPLLQVISMREFPTERPYFFLCSHRDAFTSWFHIDEASGVLYLNKTLEWSDFSSLRSGSVRSPKDLTLKVGVSSTPPMKVMCTILPTVEVKLSFINDTAPSCGQVELSTLCFPEKISNPHITENREPGALRQLRRFTHMSICPNYTISYGVVAGSSVPFAVDDSTSELVVTAQVDREEKEVYHLDIVCMVRTERNLEEVFRSLHVNIYDEDDNSPYVNGTDTEDVLVEFDRSEGTVFGTLFVYDRDTTPVYPTNQVQNKLVGTLMTNDSWIKNNFAIEHKFREEKAIFGNVRGTVHEYKLKLSQNLSVTEQRSFLLGYLVNDTTFPGPEGTVLLHFNVTVLPVPIRFSNVTYSFTVSQKATTYSQIGKVCVENCQKFKGIDVTYQLEIVDRNITAEAQSCYWAVSLAQNPNDNTGVLYVNDTKVLRRPECQELEYVVIAQEQQNKLQAKTQLTVSFQGEADSLKTDEPRFPACAEKRQRGDCEATRGLGAPTGRCQWRQGRDKGISKRYSTCSPNLGTCPDGYCDAIESKNISICPQDCSSEAIIGGYERDLYGIKAGHGTCYCFEGKCFCERDEPEDDICNDMC
notes: RET receptor tyrosine kinase, zebrafish, extracellular domain, residues 22-626 of NCBI NP_858048.2; thrombin cleavage site after the tags (pK503.9 vector); A mixture of monomer, dimer and some higher oligomers by native PAGE; not shown: Flag, N-terminal, kept; His8, N-terminal, kept
Consider B2, for which, in test [3], the “stoichiometry N” value is ~1 zRET^ECD per zGFRα1^ECD (ternary complex with zGDNF).

B3: mouse EphA4 ligand-binding domain with C-terminal human IgG1 hinge and Fc (mEphA4^LBD) (Fc fusion, mouse (Mus musculus), UniProt Q03137-1 29-210, looked up)
chain: NEVTLLDSRSVQGELGWIASPLEGGWEEVSIMDEKNTPIRTYQVCNVMEASQNNWLRTDWITREGAQRVYIEIKFTLRDCNSLPGVMGTCKETFNLYYYESDNDKERFIRESQFGKIDTIAADESFTQVDIGDRIMKLNTEIRDVGPLSKKGFYLAFQDVGACIALVSVRVFYKKCPLTVRN
notes: concentrations were calculated for the monomeric form. pMA152a vector; also called Mus musculus EphA4; source: Hi5 insect cells, purified (Protein-A Sepharose); not shown: Fc (human IgG1, with hinge region), C-terminal, kept
B3: the Kd in test [4] is 180 ± 10 nM.

In general, Kd refers to the constant that tells how readily two partners part at equilibrium. As usually defined, the stoichiometry N is the number of molecules, sites or subunits per partner or assembly.
